Reference: patent US20090130192A1 (UNIVERSITY OF MANCHESTER, published 2009)
Each block holds one binder with its values, some of them ahead of it.

Assays:
[1] = molecular target: vascular endothelial growth factor (VEGF), isoform not stated; assay: cell-based or functional assay
[2] = molecular target: basic fibroblast growth factor (FGF-2); assay: cell-based or functional assay
[3] = molecular target: basic fibroblast growth factor (FGF-2); assay: solid-phase binding assay, growth factor coated at 2 µg/ml, opticin titrated, detected with opticin-specific antibody; apparent Kd
VEGF164 = assay: as above
[4] = molecular target: T1, full-length recombinant opticin (bovine (stated in Example 6 only; not …, UniProt P58874 20-321); assay: solid-phase binding assay, receptor coated at 2 µg/ml, opticin titrated, detected with opticin-specific antibody; apparent Kd
T1 construct: mature; also called recombinant bovine opticin; class III SLRP opticin
T1 sequence (looked up): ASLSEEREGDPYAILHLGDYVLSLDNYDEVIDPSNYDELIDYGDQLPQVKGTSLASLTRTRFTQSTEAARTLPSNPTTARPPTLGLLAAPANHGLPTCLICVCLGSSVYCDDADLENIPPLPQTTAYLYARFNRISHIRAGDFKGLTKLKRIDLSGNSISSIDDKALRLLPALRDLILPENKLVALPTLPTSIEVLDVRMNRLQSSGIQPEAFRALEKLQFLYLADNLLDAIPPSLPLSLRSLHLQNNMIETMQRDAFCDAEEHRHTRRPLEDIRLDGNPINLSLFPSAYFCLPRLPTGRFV

Chain of basic fibroblast growth factor (FGF-2) (P09038 143-288): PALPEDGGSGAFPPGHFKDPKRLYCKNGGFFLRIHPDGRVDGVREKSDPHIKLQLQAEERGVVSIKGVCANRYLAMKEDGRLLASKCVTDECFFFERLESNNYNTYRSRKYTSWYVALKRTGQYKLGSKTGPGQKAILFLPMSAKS

inhibition of VEGF induced BAEC proliferation [1]: > 90%
reduction of VEGF-induced BAEC migration, 10 µg/ml opticin [1]: 53%
reduction of VEGF-induced BAEC sprouting [1]: 70%
inhibition of FGF-2 induced BAEC proliferation [2]: > 95%
reduction of FGF-2-induced BAEC migration, 10 µg/ml opticin [2]: 86%
reduction of FGF-2-induced BAEC sprouting [2]: 73%
Kd [3]: 34 nM
Kd (VEGF164): 42 nM
B1: full-length recombinant opticin (protein, UniProt P58874 20-321, looked up)
chain: T1 sequence (looked up)

Kd [4]: 21 nM
B2: VEGF-R1, soluble extracellular domain (receptor)
chain: SKLKDPELSLKGTQHIMQAGQTLHLQCRGEAAHKWSLPEMVSKESERLSITKSACGRNGKQFCSTLTLNTAQANHTGFYSCKYLAVPTSKKKETESAIYIFISDTGRPFVEMYSEIPEIIHMTEGRELVIPCRVTSPNITVTLKKFPLDTLIPDGKRIIWDSRKGFIISNATYKEIGLLTCEATVNGHLYKTNYLTHRQTNTIIDVQISTPRPVKLLRGHTLVLNCTATTPLNTRVQMTWSYPDEKNKRASVRRRIDQSNSHANIFYSVLTIDKMQNKDKGLYTCRVRSGPSFKSVNTSVHIYDKAFITVKHRKQQVLETVAGKRSYRLSMKVKAFPSPEVVWLKDGLPATEKSARYLTRGYSLIIKDVTEEDAGNYTILLSIKQSNVFKNLTATLIVNVKPQIYEKAVSSFPDPALYPLGSRQILTCTAYGIPQPTIKWFWHPCNHNHSEARCDFCSNNEESFILDADSNMGNRIESITQRMAIIEGKNKMASTLVVADSRISGIYICIASNKVGTVGRNISFYITDVPNGFHVNLEKMPTEGEDLKLSCTVNKFLYRDVTWILLRTVNNRTMHYSISKQKMAITKEHSITLNLTIMNVSLQDSGTYACRARNVYTGEEILQKKEITIRDQEAPYLLRNLSDHTVAISSSTTLDCHANGVPEPQITWFKNNHKIQQEPGIILGPGSSTLFIERVTEEDEGVYHCKATNQKGSVESSAYLTVQGTSDKSNLE
